To fix the notation:
B1: biotinylated SAMM50 LIR peptide (residues 18–41) (peptide)
peptide: DFGGLGEEAEFVEVEPEAKQEILE
modifications: also: biotinylated, position not given here

One experiment deals with GABARAPL1, purified (human, UniProt Q9H0R8 1-117). The experiment can be described thus: BLI. In general terms: In BLI a coated tip is dipped into the sample, and binding shifts an interference pattern.
For a further experiment, the target named is GABARAP, purified (human, UniProt O95166 1-117). The experiment can be described thus: BLI.
Sequence of GABARAP, purified (O95166 whole entry): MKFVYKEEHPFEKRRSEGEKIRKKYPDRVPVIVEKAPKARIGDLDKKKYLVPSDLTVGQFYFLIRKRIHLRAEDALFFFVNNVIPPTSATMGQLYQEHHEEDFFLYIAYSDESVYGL
A further experiment deals with LC3A, purified (human, UniProt Q9H492 1-121). The experiment can be described thus: BLI.
Another experiment deals with LC3C, purified (human, UniProt Q9BXW4 1-126). Description: BLI.
Sequence of LC3C, purified (Q9BXW4 1-126): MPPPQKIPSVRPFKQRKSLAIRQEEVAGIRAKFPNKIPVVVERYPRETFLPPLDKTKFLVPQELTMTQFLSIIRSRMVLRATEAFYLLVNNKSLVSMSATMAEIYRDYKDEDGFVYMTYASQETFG
The target of the next experiment is GST-GABARAP Y49A (human, UniProt O95166 1-117, Y49A). The experiment can be described thus: pull-down.
In experiment [1] the target is B1. The experiment can be described thus: BLI.

From PMC8160579 (The Journal of Cell Biology, 2021) come the findings set out here.

Where no end group is shown, it is not given here. Some results are limits rather than exact numbers.

As usually defined, the Kd is a measure of binding affinity in units of concentration.

Sequence of GABARAPL1, purified (Q9H0R8 whole entry): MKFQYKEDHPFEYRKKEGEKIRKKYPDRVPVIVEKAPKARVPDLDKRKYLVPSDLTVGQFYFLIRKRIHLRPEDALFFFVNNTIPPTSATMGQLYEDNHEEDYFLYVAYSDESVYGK

In the case of B1, the Kd in the experiment with GABARAPL1, purified amounted to 10 µM; with GABARAP, purified, 23.9 µM; in the experiment with LC3A, purified it was 27.6 µM; with LC3C, purified, 57.2 µM.

B2: Myc-SAMM50 WT, in vitro translated (natural protein)
chain: MGTVHARSLEPLPSSGPDFGGLGEEAEFVEVEPEAKQEILENKDVVVQHVHFDGLGRTKDDIIICEIGDVFKAKNLIEVMRKSHEAREKLLRLGIFRQVDVLIDTCQGDDALPNGLDVTFEVTELRRLTGSYNTMVGNNEGSMVLGLKLPNLLGRAEKVTFQFSYGTKETSYGLSFFKPRPGNFERNFSVNLYKVTGQFPWSSLRETDRGMSAEYSFPIWKTSHTVKWEGVWRELGCLSRTASFAVRKESGHSLKSSLSHAMVIDSRNSSILPRRGALLKVNQELAGYTGGDVSFIKEDFELQLNKQLIFDSVFSASFWGGMLVPIGDKPSSIADRFYLGGPTSIRGFSMHSIGPQSEGDYLGGEAYWAGGLHLYTPLPFRPGQGGFGELFRTHFFLNAGNLCNLNYGEGPKAHIRKLAECIRWSYGAGIVLRLGNIARLELNYCVPMGVQTGDRICDGVQFGAGIRFL
B2: the “reduction in binding relative to WT GABARAP” value in the experiment with GST-GABARAP Y49A is > 60%.

B3: GABARAP Q59E (natural protein)
chain: MKFVYKEEHPFEKRRSEGEKIRKKYPDRVPVIVEKAPKARIGDLDKKKYLVPSDLTVGEFYFLIRKRIHLRAEDALFFFVNNVIPPTSATMGQLYQEHHEEDFFLYIAYSDESVYGL
Turning to B3, in experiment [1], the “fold reduction of binding relative to WT GABARAP” value was > 3.5 fold.
